# Experimental data taken from article PMC5036048 (Scientific Reports, 2016).
# Key:
# [1] = molecular target: T1, N43 (gp41 NHR peptide, Val539~Leu581) (HIV-1 (numbering of HIV-1 HXB2 gp160), UniProt P04578 539-581); experiment: cell-based or functional assay
# [2] = molecular target: T1, N43 (gp41 NHR peptide, Val539~Leu581); experiment: cell-based or functional assay; remark: listed apart in the source
# T1 sequence (P04578 539-581): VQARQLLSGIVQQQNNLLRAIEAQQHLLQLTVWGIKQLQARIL
binder,measurement,setting,value
WMEWDREINNYTSLIHSLIEESQNQQIDL [CP-IDL],IC50 of inhibition of HIV-1 pseudovirus B1206.W6P.ENV.A1 (subtype A),[1],74.5 nM
same,IC50 of inhibition of HIV-1 pseudovirus BG505.W6M.ENV.C2 (subtype A),[1],8.61 nM
same,IC50 of inhibition of HIV-1 pseudovirus BJ412.W6M.ENV.S3 (subtype C),[1],1.21 nM
same,IC50 of inhibition of HIV-1 pseudovirus MJ412.W0M.ENV.B1 (subtype C),[1],2.24 nM
same,"IC50 of inhibition of HIV-1 pseudovirus SF162.LS (subtype B, R5, Tier 1)",[1],1.51 nM
same,"IC50 of inhibition of HIV-1 pseudovirus ZM109F.PB4 (subtype C, R5)",[1],2.93 nM
same,"IC50 of inhibition of HIV-1 pseudovirus pCH119 env (subtype BC, R5, Tier 2)",[1],5.79 nM
same,"IC50 of inhibition of infection, T20-resistant strain N42T, N43K",[2],382 nM
same,"IC50 of inhibition of infection, T2635-resistant strain K154Q",[2],9.79 nM
same,"IC50 of inhibition of infection, T2635-resistant strain N113E",[2],7.99 nM
same,"IC50 of inhibition of infection, T2635-resistant strain N126K",[2],46.4 nM
same,"IC50 of inhibition of infection, T2635-resistant strain Q66R, N126K",[2],302 nM
same,"IC50 of inhibition of infection, panel of T20-resistant strains: WT",[2],8.67 nM
same,"IC50 of inhibition of infection, panel of T2635-resistant strains: WT",[2],10.8 nM
